Reference: article PMC3959867 (Science (New York, N.Y.), 2012)

B1: G6V, six-residue segment GDVIEV of alphaB crystallin (peptide)
chain: GDVIEV

Legend:
[1] = target: K11V-TR, cylindrin tandem repeat V2L variant; assay: SEC
[2] = target: K11V-TR, cylindrin tandem repeat V2L variant; assay: crystal structure
[3] = target: K11V-TR, cylindrin tandem repeat V2L variant; assay: native MS
crystal structure = target: the molecule itself; assay: crystal structure

Molecule	stoichiometry N [1]	stoichiometry N [2]	stoichiometry N [3]	binding result (crystal structure)
K11V-TR, cylindrin tandem repeat V2L variant (peptide)	3	3	3	–
B1	–	–	–	binds
